Assay results as given in patent publication US20250262210A1 (TRUSTEES OF COLUMBIA UNIVERSITY IN THE CITY OF NEW YORK, published 2025).

Key:
Test in all cases: IP/MS, LZTR1 wild type-FLAG, U87
ANKRD52 = target: T1, ANKRD52 (human, UniProt Q8NB46 1-1076)
T1 sequence (looked up): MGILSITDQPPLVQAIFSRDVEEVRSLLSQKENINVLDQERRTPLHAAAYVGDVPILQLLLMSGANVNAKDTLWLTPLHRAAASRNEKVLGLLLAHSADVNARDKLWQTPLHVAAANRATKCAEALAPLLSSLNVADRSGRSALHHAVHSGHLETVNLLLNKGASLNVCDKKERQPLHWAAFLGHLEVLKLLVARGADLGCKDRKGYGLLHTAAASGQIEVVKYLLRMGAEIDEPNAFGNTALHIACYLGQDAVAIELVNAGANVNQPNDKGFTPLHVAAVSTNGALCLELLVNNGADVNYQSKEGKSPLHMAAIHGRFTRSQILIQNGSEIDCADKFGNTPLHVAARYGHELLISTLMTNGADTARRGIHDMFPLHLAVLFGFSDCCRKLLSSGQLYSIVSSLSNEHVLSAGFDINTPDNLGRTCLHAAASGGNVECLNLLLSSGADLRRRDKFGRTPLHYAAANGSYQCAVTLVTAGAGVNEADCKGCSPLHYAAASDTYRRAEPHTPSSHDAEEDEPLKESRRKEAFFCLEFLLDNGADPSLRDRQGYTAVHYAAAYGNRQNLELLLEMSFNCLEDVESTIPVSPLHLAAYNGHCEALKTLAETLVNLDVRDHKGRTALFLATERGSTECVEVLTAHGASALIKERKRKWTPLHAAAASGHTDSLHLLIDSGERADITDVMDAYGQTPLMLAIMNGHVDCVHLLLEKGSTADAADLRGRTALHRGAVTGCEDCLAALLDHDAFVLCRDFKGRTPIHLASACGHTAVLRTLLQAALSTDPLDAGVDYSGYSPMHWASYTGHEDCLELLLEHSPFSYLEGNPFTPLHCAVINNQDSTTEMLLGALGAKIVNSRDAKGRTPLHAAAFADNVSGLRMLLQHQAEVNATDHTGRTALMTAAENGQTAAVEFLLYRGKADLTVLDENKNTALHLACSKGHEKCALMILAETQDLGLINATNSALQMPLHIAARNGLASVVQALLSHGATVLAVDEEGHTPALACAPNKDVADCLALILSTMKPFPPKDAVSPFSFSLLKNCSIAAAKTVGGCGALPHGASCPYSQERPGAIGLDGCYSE
Procedure, shortened: (§1)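 Extracted peptides in 3% acetonitrile/0.1% formic acid ran on a 50 cm C18 column into an Orbitrap Fusion, with MaxQuant identification and spectral counting.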

CDC42BPA = CDC42BPA (human, UniProt Q5VT25 1-1732, limits assumed)
Sequence of CDC42BPA (Q5VT25 whole entry): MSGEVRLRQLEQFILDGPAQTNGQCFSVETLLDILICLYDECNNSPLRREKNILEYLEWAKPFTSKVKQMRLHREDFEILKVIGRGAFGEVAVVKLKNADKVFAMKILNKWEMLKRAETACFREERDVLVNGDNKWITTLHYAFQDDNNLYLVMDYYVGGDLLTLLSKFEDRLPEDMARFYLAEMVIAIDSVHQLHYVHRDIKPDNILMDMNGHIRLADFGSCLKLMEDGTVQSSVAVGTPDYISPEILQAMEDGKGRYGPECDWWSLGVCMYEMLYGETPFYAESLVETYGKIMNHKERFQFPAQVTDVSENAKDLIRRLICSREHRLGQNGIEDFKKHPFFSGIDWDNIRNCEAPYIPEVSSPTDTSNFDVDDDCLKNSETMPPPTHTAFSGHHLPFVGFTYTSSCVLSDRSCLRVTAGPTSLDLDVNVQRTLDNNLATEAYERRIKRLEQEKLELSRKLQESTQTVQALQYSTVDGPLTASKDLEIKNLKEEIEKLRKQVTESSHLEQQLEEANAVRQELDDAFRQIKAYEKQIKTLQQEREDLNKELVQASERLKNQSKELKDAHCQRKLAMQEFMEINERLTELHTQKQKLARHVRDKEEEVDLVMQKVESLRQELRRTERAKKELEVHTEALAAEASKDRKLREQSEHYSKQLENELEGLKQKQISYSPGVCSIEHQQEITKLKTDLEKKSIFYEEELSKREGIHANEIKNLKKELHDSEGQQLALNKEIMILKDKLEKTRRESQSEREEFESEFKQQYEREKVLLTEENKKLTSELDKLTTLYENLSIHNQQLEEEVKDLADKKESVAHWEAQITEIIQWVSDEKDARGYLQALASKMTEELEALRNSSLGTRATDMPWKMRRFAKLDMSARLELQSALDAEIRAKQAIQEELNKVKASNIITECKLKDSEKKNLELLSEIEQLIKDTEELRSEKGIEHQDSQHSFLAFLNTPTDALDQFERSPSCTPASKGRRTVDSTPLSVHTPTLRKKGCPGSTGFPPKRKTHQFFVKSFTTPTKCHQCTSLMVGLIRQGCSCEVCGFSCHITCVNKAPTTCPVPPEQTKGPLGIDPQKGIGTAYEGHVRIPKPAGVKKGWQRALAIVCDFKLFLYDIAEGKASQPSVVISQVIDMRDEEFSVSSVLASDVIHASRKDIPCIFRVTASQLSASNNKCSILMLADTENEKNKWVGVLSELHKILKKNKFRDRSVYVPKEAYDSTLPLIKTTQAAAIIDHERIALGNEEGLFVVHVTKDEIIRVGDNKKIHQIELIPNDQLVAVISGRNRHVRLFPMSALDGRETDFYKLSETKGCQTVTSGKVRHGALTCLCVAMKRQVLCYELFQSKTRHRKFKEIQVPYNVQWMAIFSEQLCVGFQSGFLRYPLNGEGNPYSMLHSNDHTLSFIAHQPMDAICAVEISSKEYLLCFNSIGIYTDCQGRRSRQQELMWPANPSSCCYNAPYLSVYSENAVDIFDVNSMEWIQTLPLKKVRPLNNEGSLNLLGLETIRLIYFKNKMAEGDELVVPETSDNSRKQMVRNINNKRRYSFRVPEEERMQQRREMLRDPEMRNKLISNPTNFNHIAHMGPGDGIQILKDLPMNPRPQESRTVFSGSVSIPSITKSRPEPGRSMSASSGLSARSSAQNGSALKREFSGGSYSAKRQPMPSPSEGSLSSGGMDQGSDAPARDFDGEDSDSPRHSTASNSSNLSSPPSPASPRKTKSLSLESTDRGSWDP
Procedure, shortened: as §1

SLC4A2 = target: T2, SLC4A2 (human, UniProt P04920 1-1241, limits assumed)
T2 sequence (looked up): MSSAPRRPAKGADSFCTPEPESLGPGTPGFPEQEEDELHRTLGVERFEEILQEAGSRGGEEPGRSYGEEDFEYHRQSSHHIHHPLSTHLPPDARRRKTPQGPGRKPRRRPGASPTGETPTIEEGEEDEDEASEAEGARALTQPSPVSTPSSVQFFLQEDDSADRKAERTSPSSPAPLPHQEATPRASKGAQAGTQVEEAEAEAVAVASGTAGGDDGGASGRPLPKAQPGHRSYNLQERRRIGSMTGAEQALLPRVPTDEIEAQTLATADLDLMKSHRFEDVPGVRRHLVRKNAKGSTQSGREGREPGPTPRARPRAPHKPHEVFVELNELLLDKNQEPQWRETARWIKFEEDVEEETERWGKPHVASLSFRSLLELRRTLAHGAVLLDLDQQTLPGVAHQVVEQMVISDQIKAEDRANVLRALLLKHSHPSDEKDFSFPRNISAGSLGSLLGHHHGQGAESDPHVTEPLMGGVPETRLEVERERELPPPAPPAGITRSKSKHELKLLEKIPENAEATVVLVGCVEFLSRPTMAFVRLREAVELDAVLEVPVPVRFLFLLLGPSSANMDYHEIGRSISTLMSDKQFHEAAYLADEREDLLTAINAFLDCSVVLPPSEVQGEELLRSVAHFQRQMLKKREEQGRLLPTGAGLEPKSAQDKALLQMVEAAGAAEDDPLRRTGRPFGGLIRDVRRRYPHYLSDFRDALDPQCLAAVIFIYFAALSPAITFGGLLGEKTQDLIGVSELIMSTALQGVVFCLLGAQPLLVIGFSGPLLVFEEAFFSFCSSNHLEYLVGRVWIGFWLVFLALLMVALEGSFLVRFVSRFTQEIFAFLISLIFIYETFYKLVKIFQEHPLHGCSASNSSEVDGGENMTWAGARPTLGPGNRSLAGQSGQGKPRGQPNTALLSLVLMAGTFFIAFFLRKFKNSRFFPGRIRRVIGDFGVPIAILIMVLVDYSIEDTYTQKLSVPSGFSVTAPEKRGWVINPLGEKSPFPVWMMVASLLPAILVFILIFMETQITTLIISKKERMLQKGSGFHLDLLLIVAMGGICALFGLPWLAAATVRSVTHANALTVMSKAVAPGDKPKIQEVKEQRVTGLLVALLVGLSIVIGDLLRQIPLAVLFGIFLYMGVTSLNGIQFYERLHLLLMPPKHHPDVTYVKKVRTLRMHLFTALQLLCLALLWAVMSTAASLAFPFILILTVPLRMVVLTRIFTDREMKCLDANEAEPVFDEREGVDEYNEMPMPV
Procedure, shortened: as §1

Measured: binding result

B1: LZTR1-FLAG (other, human, UniProt Q8N653 1-840, looked up)
chain: MAGPGSTGGQIGAAALAGGARSKVAPSVDFDHSCSDSVEYLTLNFGPFETVHRWRRLPPCDEFVGARRSKHTVVAYKDAIYVFGGDNGKTMLNDLLRFDVKDCSWCRAFTTGTPPAPRYHHSAVVYGSSMFVFGGYTGDIYSNSNLKNKNDLFEYKFATGQWTEWKIEGRLPVARSAHGATVYSDKLWIFAGYDGNARLNDMWTIGLQDRELTCWEEVAQSGEIPPSCCNFPVAVCRDKMFVFSGQSGAKITNNLFQFEFKDKTWTRIPTEHLLRGSPPPPQRRYGHTMVAFDRHLYVFGGAADNTLPNELHCYDVDFQTWEVVQPSSDSEVGGAEVPERACASEEVPTLTYEERVGFKKSRDVFGLDFGTTSAKQPTQPASELPSGRLFHAAAVISDAMYIFGGTVDNNIRSGEMYRFQFSCYPKCTLHEDYGRLWESRQFCDVEFVLGEKEECVQGHVAIVTARSRWLRRKITQARERLAQKLEQEAAPVPREAPGVAAGGARPPLLHVAIREAEARPFEVLMQFLYTDKIKYPRKGHVEDVLLIMDVYKLALSFQLCRLEQLCRQYIEASVDLQNVLVVCESAARLQLSQLKEHCLNFVVKESHFNQVIMMKEFERLSSPLIVEIVRRKQQPPPRTPLDQPVDIGTSLIQDMKAYLEGAGAEFCDITLLLDGHPRPAHKAILAARSSYFEAMFRSFMPEDGQVNISIGEMVPSRQAFESMLRYIYYGEVNMPPEDSLYLFAAPYYYGFYNNRLQAYCKQNLEMNVTVQNVLQILEAADKTQALDMKRHCLHIIVHQFTKVSKLPTLRSLSQQLLLDIIDSLASHISDKQCAELGADI
notes: Expressed in HEK 293T, HeLa or U87 cells; used as cell lysate; also called LZTR1 wild type-FLAG; LZTR1 WT; not shown: FLAG tag at the C-terminus
binds: ANKRD52 | CDC42BPA | SLC4A2
